Results as given in patent US20240287161A1 (NATIONAL UNIVERSITY CORPORATION TOTTORI UNIVERSITY, published 2024).

Key:
[1] = molecular target: T1, HCoV-229E trimeric S protein (amino acids 12-1109) with T4 foldon, histidine tag and strep-tag (HCoV-229E, UniProt P15423 12-1112); test: ELISA on coated S-trimeric antigen, anti-human IgG-HRP [Human IgG1, NT-193]
T1 chain: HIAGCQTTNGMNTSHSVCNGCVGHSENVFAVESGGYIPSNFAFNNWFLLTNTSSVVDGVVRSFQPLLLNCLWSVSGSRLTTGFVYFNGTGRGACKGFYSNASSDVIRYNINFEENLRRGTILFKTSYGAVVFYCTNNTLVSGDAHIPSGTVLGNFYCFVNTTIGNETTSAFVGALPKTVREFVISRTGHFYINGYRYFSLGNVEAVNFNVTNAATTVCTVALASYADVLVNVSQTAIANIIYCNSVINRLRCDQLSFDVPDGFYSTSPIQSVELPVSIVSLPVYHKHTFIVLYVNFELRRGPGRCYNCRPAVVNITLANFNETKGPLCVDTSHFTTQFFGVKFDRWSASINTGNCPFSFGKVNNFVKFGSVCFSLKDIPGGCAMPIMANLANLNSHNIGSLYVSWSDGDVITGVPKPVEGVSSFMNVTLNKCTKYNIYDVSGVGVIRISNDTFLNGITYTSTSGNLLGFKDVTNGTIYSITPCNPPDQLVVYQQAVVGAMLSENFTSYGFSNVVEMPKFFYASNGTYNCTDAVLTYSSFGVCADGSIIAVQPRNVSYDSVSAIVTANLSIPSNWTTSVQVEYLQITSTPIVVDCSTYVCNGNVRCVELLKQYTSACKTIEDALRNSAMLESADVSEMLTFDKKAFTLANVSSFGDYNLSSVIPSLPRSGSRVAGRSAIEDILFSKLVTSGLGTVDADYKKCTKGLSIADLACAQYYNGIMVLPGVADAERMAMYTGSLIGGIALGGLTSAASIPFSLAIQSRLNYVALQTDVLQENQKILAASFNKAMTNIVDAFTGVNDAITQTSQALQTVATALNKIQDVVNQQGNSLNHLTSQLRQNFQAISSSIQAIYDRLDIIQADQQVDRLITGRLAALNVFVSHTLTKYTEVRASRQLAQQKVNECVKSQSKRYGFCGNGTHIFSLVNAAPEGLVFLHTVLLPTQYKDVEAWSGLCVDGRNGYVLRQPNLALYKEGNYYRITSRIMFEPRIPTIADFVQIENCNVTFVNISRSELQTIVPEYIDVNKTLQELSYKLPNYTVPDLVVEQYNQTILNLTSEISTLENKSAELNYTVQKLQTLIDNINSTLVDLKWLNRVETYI

[2] = molecular target: T2, HCoV-HKU1 trimeric S protein (amino acids 13-1293) with T4 foldon, histidine tag and strep-tag (HCoV-HKU1, UniProt Q5MQD0 13-1297); test: as above
T2 sequence: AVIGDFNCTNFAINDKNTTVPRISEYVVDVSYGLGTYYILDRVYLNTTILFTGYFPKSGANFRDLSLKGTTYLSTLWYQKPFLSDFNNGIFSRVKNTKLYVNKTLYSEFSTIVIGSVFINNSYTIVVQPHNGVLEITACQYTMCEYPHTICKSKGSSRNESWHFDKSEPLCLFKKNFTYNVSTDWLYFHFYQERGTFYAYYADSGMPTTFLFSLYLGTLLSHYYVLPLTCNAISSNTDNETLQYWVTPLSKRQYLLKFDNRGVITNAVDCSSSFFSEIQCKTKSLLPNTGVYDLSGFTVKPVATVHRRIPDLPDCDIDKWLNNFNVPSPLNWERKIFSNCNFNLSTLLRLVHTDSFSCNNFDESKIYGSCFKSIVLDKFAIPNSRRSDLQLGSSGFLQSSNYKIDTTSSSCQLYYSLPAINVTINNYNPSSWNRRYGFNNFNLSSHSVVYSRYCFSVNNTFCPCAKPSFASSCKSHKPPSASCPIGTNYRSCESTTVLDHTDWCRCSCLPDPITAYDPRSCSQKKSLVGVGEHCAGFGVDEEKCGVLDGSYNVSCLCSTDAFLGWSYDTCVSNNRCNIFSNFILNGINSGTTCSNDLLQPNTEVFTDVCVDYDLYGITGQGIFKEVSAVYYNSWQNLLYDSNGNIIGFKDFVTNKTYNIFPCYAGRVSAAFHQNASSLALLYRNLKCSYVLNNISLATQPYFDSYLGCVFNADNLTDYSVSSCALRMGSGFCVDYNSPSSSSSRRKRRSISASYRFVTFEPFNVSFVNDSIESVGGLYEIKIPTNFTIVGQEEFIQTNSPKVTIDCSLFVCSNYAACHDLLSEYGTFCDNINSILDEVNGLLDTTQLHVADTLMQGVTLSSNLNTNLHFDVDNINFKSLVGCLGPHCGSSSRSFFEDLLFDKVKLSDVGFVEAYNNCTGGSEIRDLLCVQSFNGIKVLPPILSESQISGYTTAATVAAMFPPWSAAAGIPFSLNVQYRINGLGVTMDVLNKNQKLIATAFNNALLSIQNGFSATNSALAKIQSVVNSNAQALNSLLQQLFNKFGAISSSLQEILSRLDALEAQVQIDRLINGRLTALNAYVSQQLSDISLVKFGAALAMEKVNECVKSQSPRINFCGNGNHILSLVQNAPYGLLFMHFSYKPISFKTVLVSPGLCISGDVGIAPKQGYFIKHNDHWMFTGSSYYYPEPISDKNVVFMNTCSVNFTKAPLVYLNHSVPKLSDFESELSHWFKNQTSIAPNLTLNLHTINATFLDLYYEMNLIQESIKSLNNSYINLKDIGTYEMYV

B1: NT-193 (recombinant human IgG1/kappa antibody) (antibody, V domains shown)
VH: EVQLQQWGAGLLKPSETLSLTCAVYGGSFSGYYWSWIRQPPGKGLEWIGEINHSGSTNYNPSLKSRVTISVDTSKNQFSLKLSSVTAADTAVYYCARGWDLDYYYGMDVWGQGTTVTVSS
VL: DIRMTQSPSAMSASVGDRVTVTCRASQGIGNYLAWFQLKPGKVPKRLIYAASSLQSGVPARFSGGGSGTEFTLTISSLQPEDFATYYCLQHGFLPWTFGQGTKLEIK
binding result [1]: no binding (tested: 1000 ng/ml) | binding result [2]: no binding (tested: 1000 ng/ml)
